Experimental data: paper PMC7812809 (Proceedings of the National Academy of Sciences of the …, 2020)

Legend:
Assay in all cases: negative stain EM
[1] = molecular target: Dendra2 T69A-LdcI (N-terminal fluorescent protein fusion of LdcI) (not stated | E. coli) (UniProt P0A9H3)
[2] = molecular target: LdcI-Dendra2 T69A (C-terminal fluorescent protein fusion of LdcI) (E. coli | not stated) (UniProt P0A9H3)
[3] = molecular target: LdcI R97E/R468E double mutant (E. coli) (UniProt P0A9H3)
[4] = molecular target: LdcI E445A/D447A/R468E triple mutant (E. coli) (UniProt P0A9H3)
[5] = molecular target: LdcI-mGeosM (C-terminal fluorescent protein fusion of LdcI) (E. coli | not stated) (UniProt P0A9H3)
negative stain EM = molecular target: the molecule itself

Q: For “Dendra2 T69A-LdcI (N-terminal fluorescent protein fusion of LdcI) (from UniProt P0A9H3 1-715) (enzyme)”, which stoichiometry N [1] is on record?
A: 2

Q: For “LdcI-Dendra2 T69A (C-terminal fluorescent protein fusion of LdcI) (from UniProt P0A9H3 1-715) (enzyme)”, which stoichiometry N [2] is on record?
A: 10

Q: “LdcI R97E/R468E double mutant (from UniProt P0A9H3 1-715) (enzyme)” was tested. Which stoichiometry N [3] did it give?
A: 10

Q: How did the stoichiometry N [4] turn out when “LdcI E445A/D447A/R468E triple mutant (from UniProt P0A9H3 1-715) (enzyme)” was run?
A: 10

Q: How did the stoichiometry N [5] turn out when “LdcI-mGeosM (C-terminal fluorescent protein fusion of LdcI) (from UniProt P0A9H3 1-715) (enzyme)” was run?
A: 10

B1: LdcI E445A/D447A double mutant (enzyme, E. coli)
chain: MNVIAILNHMGVYFKEEPIRELHRALERLNFQIVYPNDRDDLLKLIENNARLCGVIFDWDKYNLELCEEISKMNENLPLYAFANTYSTLDVSLNDLRLQISFFEYALGAAEDIANKIKQTTDEYINTILPPLTKALFKYVREGKYTFCTPGHMGGTAFQKSPVGSLFYDFFGPNTMKSDISISVSELGSLLDHSGPHKEAEQYIARVFNADRSYMVTNGTSTANKIVGMYSAPAGSTILIDRNCHKSLTHLMMMSDVTPIYFRPTRNAYGILGGIPQSEFQHATIAKRVKETPNATWPVHAVITNSTYDGLLYNTDFIKKTLDVKSIHFDSAWVPYTNFSPIYEGKCGMSGGRVEGKVIYETQSTHKLLAAFSQASMIHVKGDVNEETFNEAYMMHTTTSPHYGIVASTETAAAMMKGNAGKRLINGSIERAIKFRKEIKRLRTASAGWFFDVWQPDHIDTTECWPLRSDSTWHGFKNIDNEHMYLDPIKVTLLTPGMEKDGTMSDFGIPASIVAKYLDEHGIVVEKTGPYNLLFLFSIGIDKTKALSLLRALTDFKRAFDLNLRVKNMLPSLYREDPEFYENMRIQELAQNIHKLIVHHNLPDLMYRAFEVLPTMVMTPYAAFQKELHGMTEEVYLDEMVGRINANMILPYPPGVPLVMPGEMITEESRPVLEFLQMLCEIGAHYPGFETDIHGAYRQADGRYTVKVLKEESKK
Q: Does B1 bind (negative stain EM)?
A: binds

B2: LdcI R97E (enzyme, E. coli)
chain: MNVIAILNHMGVYFKEEPIRELHRALERLNFQIVYPNDRDDLLKLIENNARLCGVIFDWDKYNLELCEEISKMNENLPLYAFANTYSTLDVSLNDLELQISFFEYALGAAEDIANKIKQTTDEYINTILPPLTKALFKYVREGKYTFCTPGHMGGTAFQKSPVGSLFYDFFGPNTMKSDISISVSELGSLLDHSGPHKEAEQYIARVFNADRSYMVTNGTSTANKIVGMYSAPAGSTILIDRNCHKSLTHLMMMSDVTPIYFRPTRNAYGILGGIPQSEFQHATIAKRVKETPNATWPVHAVITNSTYDGLLYNTDFIKKTLDVKSIHFDSAWVPYTNFSPIYEGKCGMSGGRVEGKVIYETQSTHKLLAAFSQASMIHVKGDVNEETFNEAYMMHTTTSPHYGIVASTETAAAMMKGNAGKRLINGSIERAIKFRKEIKRLRTESDGWFFDVWQPDHIDTTECWPLRSDSTWHGFKNIDNEHMYLDPIKVTLLTPGMEKDGTMSDFGIPASIVAKYLDEHGIVVEKTGPYNLLFLFSIGIDKTKALSLLRALTDFKRAFDLNLRVKNMLPSLYREDPEFYENMRIQELAQNIHKLIVHHNLPDLMYRAFEVLPTMVMTPYAAFQKELHGMTEEVYLDEMVGRINANMILPYPPGVPLVMPGEMITEESRPVLEFLQMLCEIGAHYPGFETDIHGAYRQADGRYTVKVLKEESKK
Q: Does B2 bind (negative stain EM)?
A: binds

B3: LdcI H694A (enzyme, E. coli)
chain: MNVIAILNHMGVYFKEEPIRELHRALERLNFQIVYPNDRDDLLKLIENNARLCGVIFDWDKYNLELCEEISKMNENLPLYAFANTYSTLDVSLNDLRLQISFFEYALGAAEDIANKIKQTTDEYINTILPPLTKALFKYVREGKYTFCTPGHMGGTAFQKSPVGSLFYDFFGPNTMKSDISISVSELGSLLDHSGPHKEAEQYIARVFNADRSYMVTNGTSTANKIVGMYSAPAGSTILIDRNCHKSLTHLMMMSDVTPIYFRPTRNAYGILGGIPQSEFQHATIAKRVKETPNATWPVHAVITNSTYDGLLYNTDFIKKTLDVKSIHFDSAWVPYTNFSPIYEGKCGMSGGRVEGKVIYETQSTHKLLAAFSQASMIHVKGDVNEETFNEAYMMHTTTSPHYGIVASTETAAAMMKGNAGKRLINGSIERAIKFRKEIKRLRTESDGWFFDVWQPDHIDTTECWPLRSDSTWHGFKNIDNEHMYLDPIKVTLLTPGMEKDGTMSDFGIPASIVAKYLDEHGIVVEKTGPYNLLFLFSIGIDKTKALSLLRALTDFKRAFDLNLRVKNMLPSLYREDPEFYENMRIQELAQNIHKLIVHHNLPDLMYRAFEVLPTMVMTPYAAFQKELHGMTEEVYLDEMVGRINANMILPYPPGVPLVMPGEMITEESRPVLEFLQMLCEIGAHYPGFETDIAGAYRQADGRYTVKVLKEESKK
Q: Does B3 bind (negative stain EM)?
A: binds

B4: LdcI H694N (enzyme, E. coli)
chain: MNVIAILNHMGVYFKEEPIRELHRALERLNFQIVYPNDRDDLLKLIENNARLCGVIFDWDKYNLELCEEISKMNENLPLYAFANTYSTLDVSLNDLRLQISFFEYALGAAEDIANKIKQTTDEYINTILPPLTKALFKYVREGKYTFCTPGHMGGTAFQKSPVGSLFYDFFGPNTMKSDISISVSELGSLLDHSGPHKEAEQYIARVFNADRSYMVTNGTSTANKIVGMYSAPAGSTILIDRNCHKSLTHLMMMSDVTPIYFRPTRNAYGILGGIPQSEFQHATIAKRVKETPNATWPVHAVITNSTYDGLLYNTDFIKKTLDVKSIHFDSAWVPYTNFSPIYEGKCGMSGGRVEGKVIYETQSTHKLLAAFSQASMIHVKGDVNEETFNEAYMMHTTTSPHYGIVASTETAAAMMKGNAGKRLINGSIERAIKFRKEIKRLRTESDGWFFDVWQPDHIDTTECWPLRSDSTWHGFKNIDNEHMYLDPIKVTLLTPGMEKDGTMSDFGIPASIVAKYLDEHGIVVEKTGPYNLLFLFSIGIDKTKALSLLRALTDFKRAFDLNLRVKNMLPSLYREDPEFYENMRIQELAQNIHKLIVHHNLPDLMYRAFEVLPTMVMTPYAAFQKELHGMTEEVYLDEMVGRINANMILPYPPGVPLVMPGEMITEESRPVLEFLQMLCEIGAHYPGFETDINGAYRQADGRYTVKVLKEESKK
Q: Does B4 bind (negative stain EM)?
A: binds
